The record followed here is US20230355708A1 (published 2023).

The target in assay [1] is Yu2 gp120. Kind of assay: SPR.
Assay [2] has as its target Yu2 gp120. Kind of assay: SPR. This is another data set of the same source. For orientation: Surface plasmon resonance follows binding to a sensor surface in real time, without labels.

Read-outs that look alike come from different tables or passages of the source.

B1: CVN (other)
chain: LGKFSQTCYNSAIQGSVLTSTCERTNGGYNTSSIDLNSVIENVDGSLKWQPSNFIETCRNTQLAGSSELAAECKTRAQQFVSTKINLDDHIANIDGTLKYE
A word on the Kd: it is a measure of binding affinity in units of concentration. Lower therefore signals tighter binding. For the molecule B1, the Kd with Yu2 gp120 [1] and with Yu2 gp120 [2] was 0.622 nM each time.
